Data from US20260035426.

Sequence of recombinant human MMP9 (chain, as listed by the source): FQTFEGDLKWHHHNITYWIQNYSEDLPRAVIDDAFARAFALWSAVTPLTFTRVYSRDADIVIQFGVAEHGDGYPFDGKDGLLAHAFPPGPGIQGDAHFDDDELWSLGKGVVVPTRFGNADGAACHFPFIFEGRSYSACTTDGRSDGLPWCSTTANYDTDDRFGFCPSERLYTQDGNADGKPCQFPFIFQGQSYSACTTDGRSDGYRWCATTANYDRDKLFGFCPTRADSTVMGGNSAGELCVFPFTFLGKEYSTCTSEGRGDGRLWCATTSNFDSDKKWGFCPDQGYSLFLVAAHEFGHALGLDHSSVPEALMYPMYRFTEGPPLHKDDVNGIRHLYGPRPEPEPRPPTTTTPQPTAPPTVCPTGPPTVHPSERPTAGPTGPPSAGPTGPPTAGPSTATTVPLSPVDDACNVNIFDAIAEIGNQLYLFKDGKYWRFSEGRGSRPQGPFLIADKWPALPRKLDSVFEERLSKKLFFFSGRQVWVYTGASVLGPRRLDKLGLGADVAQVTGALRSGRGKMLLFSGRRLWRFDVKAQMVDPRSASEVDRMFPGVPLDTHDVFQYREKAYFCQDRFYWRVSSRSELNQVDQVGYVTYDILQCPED
Sequence of SB1902-C4 (chain, as listed by the source, chain 1 of 2): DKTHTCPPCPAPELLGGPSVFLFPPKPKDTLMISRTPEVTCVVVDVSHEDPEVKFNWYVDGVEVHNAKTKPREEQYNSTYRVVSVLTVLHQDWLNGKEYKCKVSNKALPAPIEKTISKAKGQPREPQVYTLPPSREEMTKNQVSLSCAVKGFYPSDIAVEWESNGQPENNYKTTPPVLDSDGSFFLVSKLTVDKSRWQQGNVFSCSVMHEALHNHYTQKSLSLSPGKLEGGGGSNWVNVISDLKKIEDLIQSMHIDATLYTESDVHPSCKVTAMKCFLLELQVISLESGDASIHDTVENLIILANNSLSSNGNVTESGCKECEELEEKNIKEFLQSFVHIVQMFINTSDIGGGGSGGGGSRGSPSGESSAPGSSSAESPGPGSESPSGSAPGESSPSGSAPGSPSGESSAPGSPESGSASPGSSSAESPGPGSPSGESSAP
Sequence of SB1902-C4 (chain, as listed by the source, chain 2 of 2): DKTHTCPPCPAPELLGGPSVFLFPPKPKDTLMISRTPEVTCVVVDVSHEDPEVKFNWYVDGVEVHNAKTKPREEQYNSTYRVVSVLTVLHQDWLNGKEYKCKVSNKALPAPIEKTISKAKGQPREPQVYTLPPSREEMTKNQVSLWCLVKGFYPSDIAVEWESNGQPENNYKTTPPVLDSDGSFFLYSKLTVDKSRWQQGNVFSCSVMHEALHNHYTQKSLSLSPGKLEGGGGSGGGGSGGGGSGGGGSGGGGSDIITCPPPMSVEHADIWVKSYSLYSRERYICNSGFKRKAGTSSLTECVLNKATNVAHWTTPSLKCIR
Sequence of SB1902-C5 (chain, as listed by the source, chain 1 of 2): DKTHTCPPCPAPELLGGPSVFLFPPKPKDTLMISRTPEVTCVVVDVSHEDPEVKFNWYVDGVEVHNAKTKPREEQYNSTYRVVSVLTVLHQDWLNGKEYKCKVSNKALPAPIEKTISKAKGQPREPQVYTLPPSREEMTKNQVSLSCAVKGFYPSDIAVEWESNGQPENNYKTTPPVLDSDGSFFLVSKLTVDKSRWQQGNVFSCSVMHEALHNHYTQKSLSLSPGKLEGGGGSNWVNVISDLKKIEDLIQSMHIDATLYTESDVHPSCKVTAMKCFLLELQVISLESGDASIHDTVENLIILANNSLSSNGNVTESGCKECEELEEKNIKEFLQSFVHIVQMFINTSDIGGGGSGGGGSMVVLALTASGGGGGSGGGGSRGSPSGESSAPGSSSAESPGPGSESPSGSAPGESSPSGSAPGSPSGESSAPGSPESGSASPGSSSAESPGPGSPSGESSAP
Sequence of SB1902-C5 (chain, as listed by the source, chain 2 of 2): as the sequence (chain, as listed by the source, chain 2 of 2) above
Sequence of SB1902-C2 (chain, as listed by the source, chain 1 of 2): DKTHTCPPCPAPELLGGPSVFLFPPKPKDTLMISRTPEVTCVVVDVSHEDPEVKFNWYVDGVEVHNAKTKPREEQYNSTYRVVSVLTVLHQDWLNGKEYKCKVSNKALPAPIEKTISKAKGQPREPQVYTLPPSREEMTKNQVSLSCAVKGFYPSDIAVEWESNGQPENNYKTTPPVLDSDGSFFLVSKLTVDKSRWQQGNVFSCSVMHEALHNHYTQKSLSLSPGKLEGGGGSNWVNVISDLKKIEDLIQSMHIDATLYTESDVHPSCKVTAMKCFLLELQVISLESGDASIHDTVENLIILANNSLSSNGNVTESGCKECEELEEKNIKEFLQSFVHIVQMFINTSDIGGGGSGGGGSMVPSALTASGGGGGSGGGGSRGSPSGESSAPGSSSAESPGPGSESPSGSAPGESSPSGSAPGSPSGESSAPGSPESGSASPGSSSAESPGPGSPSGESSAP
Sequence of SB1902-C2 (chain, as listed by the source, chain 2 of 2): as the sequence (chain, as listed by the source, chain 2 of 2) above

Substance: recombinant human MMP9
- in vitro protease digestion, polyacrylamide gel (SB1902-C2): The mutated substrate CM1 was cleavable in vitro by both MMP2 and MMP9 enzymes, with an enzyme dose-dependent manner
- in vitro protease digestion, polyacrylamide gel (SB1902-C5): The mutated substrate CM4 was cleavable in vitro by both MMP2 and MMP9 enzymes, with an enzyme dose-dependent manner
- in vitro protease digestion (data not shown) (CM7): The other cleavable moieties (such as CM2, CM5-CM10) was also cleavable in vitro by both MMP2 and MMP9 (data not shown)
- in vitro protease digestion (data not shown) (CM2): The other cleavable moieties (such as CM2, CM5-CM10) was also cleavable in vitro by both MMP2 and MMP9 (data not shown)
- in vitro protease digestion (data not shown) (CM9): The other cleavable moieties (such as CM2, CM5-CM10) was also cleavable in vitro by both MMP2 and MMP9 (data not shown)
- in vitro protease digestion (data not shown) (CM10): The other cleavable moieties (such as CM2, CM5-CM10) was also cleavable in vitro by both MMP2 and MMP9 (data not shown)
- in vitro protease digestion, polyacrylamide gel (SB1902-C4): the non-cleavable G4S linker in SB1902-C4 was resistant to both MMP2 and MMP9 enzyme digestion
- in vitro protease digestion (data not shown) (CM6): The other cleavable moieties (such as CM2, CM5-CM10) was also cleavable in vitro by both MMP2 and MMP9 (data not shown)
- in vitro protease digestion (data not shown) (CM5): The other cleavable moieties (such as CM2, CM5-CM10) was also cleavable in vitro by both MMP2 and MMP9 (data not shown)
- in vitro protease digestion (data not shown) (CM8): The other cleavable moieties (such as CM2, CM5-CM10) was also cleavable in vitro by both MMP2 and MMP9 (data not shown)
